Results from FireProtDB (doi:10.1016/j.jmb.2004.10.057).
Where “and” joins values, the source holds several entries; their conditions need not be identical. Equal entries are not always repeated.

Conditions: Mus musculus, pH 7.4, 20 °C, Tris-HCl 20 mM, whole UniProt chain shown

B1: Adenosine deaminase wild type, P03958 (protein)
chain: MAQTPAFNKPKVELHVHLDGAIKPETILYFGKKRGIALPADTVEELRNIIGMDKPLSLPGFLAKFDYYMPVIAGCREAIKRIAYEFVEMKAKEGVVYVEVRYSPHLLANSKVDPMPWNQTEGDVTPDDVVDLVNQGLQEGEQAFGIKVRSILCCMRHQPSWSLEVLELCKKYNQKTVVAMDLAGDETIEGSSLFPGHVEAYEGAVKNGIHRTVHAGEVGSPEVVREAVDILKTERVGHGYHTIEDEALYNRLLKENMHFEVCPWSSYLTGAWDPKTTHAVVRFKNDKANYSLNTDDPLIFKSTLDTDYQMTKKDMGFTEEEFKRLNINAAKSSFLPEEEKKELLERLYREYQ
denaturant m value (GdnHCl, Fluorescence): 2.08 kcal/mol/M | denaturant midpoint (higher = more stable) (GdnHCl, Fluorescence): 1.91 M | unfolding free energy (GdnHCl, Fluorescence): 3.98 kcal/mol | unfolding free energy (Urea, CD): 5.78 kcal/mol and 7.39 kcal/mol | denaturant midpoint (higher = more stable) (Urea, Enzyme assay): 0.68 M | denaturant m value (Urea, Fluorescence): 0.79 kcal/mol/M | denaturant midpoint (higher = more stable) (Urea, Fluorescence): 6.19 M | unfolding free energy (Urea, Fluorescence): 4.89 kcal/mol
